{"source": "patent US20030235857A1", "about": "(WHITEHEAD INSTITUTE FOR BIOMEDICAL RESEARCH A DELAWARE, published 2003)", "binders": {"B1": {"name": "Tpk3 fused to the Gal4 DNA binding domain (enzyme, UniProt P04386 1-147, looked up)", "chain": "MKLLSSIEQACDICRLKKLKCSKEKPKCAKCLKNNWECRYSPKTKRSPLTRAHLTEVESRLERLEQLFLLIFPREDLDMILKMDSLQDIKALLTGLFVQDNVNKDAVTDRLASVETDMPLTLRQHRISATSSSEESSNKGQRQLTVSMYVDPMNNNEIRKLSITAKTETTPDNVGQDIPVNAHSVHEECSSNTPVEINGRNSGKLKEEASAGICLVKKPMLQYRDTSGKYSLSDFQILRTLGTGSFGRVHLIRSNHNGRFYALKTLKKHTIVKLKQVEHTNDERRMLSIVSHPFIIRMWGTFQDSQQVFMVMDYIEGGELFSLLRKSQRFPNPVAKFYAAEVCLALEYLHSKDIIYRDLKPENILLDKNGHIKITDFGFAKYVPDVTYTLCGTPDYIAPEVVSTKPYNKSVDWWSFGVLIYEMLAGYTPFYNSNTMKTYENILNAELKFPPFFHPDAQDLLKKLITRDLSERLGNLQNGSEDVKNHPWFNEVIWEKLLARYIETPYEPPIQQGQGDTSQFDRYPEEEFNYGIQGEDPYMDLMKEF", "notes": "Two-hybrid bait used for retesting positive clones; also called YKL166c"}, "B2": {"name": "Mga1 fused to the Gal4 activation domain (other, Saccharomyces cerevisiae, UniProt P53050 1-456, looked up, not shown: large carriers)", "chain": "MQPKTFVHQLHAILLEPEVNKWIYWSPTDNTVFFLKPYDPNFSTHVLKRYFKHGNVNSFVRQLHMYGFHKLSHPSPDQSSANNGNVKELVEWKFTHPSGFFFKEANAGILNKIQRKSTGVGKDGKRKNILSPISVSYVDASRLNVLSQQSGPVSAREPSNMFMGSPVHYSTSQSPPHISIPQQQQSSGPYLISSLPPQQPTVNMMRRQSISARMMNSYDYPNQFSTQDSIVQPQQPQQVLSPQALSGPPMKKSGTLSSTDDLKTTSLPIVNYPMPYHPGAFAQQQQQQQQPLPTVPPYSSYSTPFPSMMNSLSNSASNSPALGVCNNNVTLPKKSNISERQALDNHIQTLKNSLSTITDLIEKHINSASQDENKTLTNDAMNKDLRTSLSLLQNSKEEIIQLESKWMSMQSVKTTALPLQETTNTSSTLTSLTSSIIPKSIPIITKGEVATKPASY", "notes": "also called YGR249w"}, "B3": {"name": "Tpk1 fused to the Gal4 DNA binding domain (enzyme, UniProt P04386 1-147, looked up)", "chain": "MKLLSSIEQACDICRLKKLKCSKEKPKCAKCLKNNWECRYSPKTKRSPLTRAHLTEVESRLERLEQLFLLIFPREDLDMILKMDSLQDIKALLTGLFVQDNVNKDAVTDRLASVETDMPLTLRQHRISATSSSEESSNKGQRQLTVSMSTEEQNGGGQKSLDDRQGEESQKGETSERETTATESGNESKSVEKEGGETQEKPKQPHVTYYNEEQYKQFIAQARVTSGKYSLQDFQILRTLGTGSFGRVHLIRSRHNGRYYAMKVLKKEIVVRLKQVEHTNDERLMLSIVTHPFIIRMWGTFQDAQQIFMIMDYIEGGELFSLLRKSQRFPNPVAKFYAAEVCLALEYLHSKDIIYRDLKPENILLDKNGHIKITDFGFAKYVPDVTYTLCGTPDYIAPEVVSTKPYNKSIDWWSFGILIYEMLAGYTPFYDSNTMKTYEKILNAELRFPPFFNEDVKDLLSRLITRDLSQRLGNLQNGTEDVKNHPWFKEVVWEKLLSRNIETPYEPPIQQGQGDTSQFDKYPEEDINYGVQGEDPYADLFRDF", "notes": "Two-hybrid bait used for retesting positive clones"}}, "assay_in_all_cases": "yeast two-hybrid, GAL4-ADE2 reporter, growth without adenine", "key": {"[1]": {"molecular_target": "T1, Sfl1 fused to the Gal4 activation domain (Saccharomyces cerevisiae, UniProt P20134 1-766, limits assumed)", "T1 construct": "also called YOR140w", "T1 sequence (looked up)": "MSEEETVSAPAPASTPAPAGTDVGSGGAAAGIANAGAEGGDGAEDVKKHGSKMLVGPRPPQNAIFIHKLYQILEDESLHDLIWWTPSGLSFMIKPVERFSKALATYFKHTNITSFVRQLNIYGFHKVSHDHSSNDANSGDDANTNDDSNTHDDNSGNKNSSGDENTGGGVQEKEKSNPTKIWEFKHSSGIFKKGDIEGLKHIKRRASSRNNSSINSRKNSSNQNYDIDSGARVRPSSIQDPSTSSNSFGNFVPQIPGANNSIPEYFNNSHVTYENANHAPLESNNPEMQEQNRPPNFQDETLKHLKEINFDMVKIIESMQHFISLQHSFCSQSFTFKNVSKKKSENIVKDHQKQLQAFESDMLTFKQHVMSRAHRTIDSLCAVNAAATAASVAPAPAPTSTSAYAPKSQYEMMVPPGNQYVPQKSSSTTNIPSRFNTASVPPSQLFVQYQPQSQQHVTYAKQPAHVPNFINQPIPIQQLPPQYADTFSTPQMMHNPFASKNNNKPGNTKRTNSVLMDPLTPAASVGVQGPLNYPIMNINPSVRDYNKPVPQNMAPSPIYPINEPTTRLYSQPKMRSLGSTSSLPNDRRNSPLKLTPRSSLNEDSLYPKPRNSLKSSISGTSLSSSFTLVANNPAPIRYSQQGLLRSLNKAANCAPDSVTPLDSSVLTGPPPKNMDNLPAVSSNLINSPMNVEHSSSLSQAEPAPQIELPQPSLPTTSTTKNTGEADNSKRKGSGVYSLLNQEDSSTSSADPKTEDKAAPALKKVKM", "text": "(§1) Other additional members of these signal transduction cascades are identified through a variety of standard techniques. First, enhancers and suppressors of phenotypes of mutant strains are isolated using standard techniques known to those skilled in the art (Ausubel, supra). Second, proteins which interact with pathway members are isolated using yeast two-hybrid methods (Fields and Song, Nature 1989, 340:245-246; Chien et al., Proc. Natl. Acad. Sci. USA 1991, 88:9578-9582; Brent and Finley, Annu. Rev. Genet. 1997, 31:663-704). In one example, proteins which specifically interact with an A kinase catalytic subunit Tpk2, and not with related proteins Tpk1 and Tpk3 were identified and shown to be important for pseudohyphal development. […] Similarly, haploid tpk2 mutants were defective for invasive growth and tpk3 mutants were hyperinvasive (FIG. 2A). tpk1 mutants were indistinguishable from wild-type strains as both haploids and diploids. The accentuated filamentation and invasion phenotypes of tpk3 mutants required a functional Tpk2 as tpk2 tpk3 mutants had the same phenotype as tpk2 single mutants. As Tpk2 appeared to be uniquely required for pseudohyphal growth, we used a two-hybrid screen to identify proteins that interact specifically with Tpk2. The intact open reading frame of TPK2 was fused to coding sequence for the Gal4 DNA binding domain and used to screen a library of yeast genomic fragments fused to coding sequence for the Gal4 transcriptional activation domain. Activation of the GAL4-ADE2 reporter, leading to adenine-independent growth of an ade-strain was taken as preliminary evidence for an interaction between the Gal4 DNA binding domain:Tpk2 fusion and the Tpk2 interacting protein fused to the Gal4 activation domain. Positive clones were then retested in the two-hybrid assay with Tpk1, Tpk2, Tpk3, or Dph1 fused to the Gal4 DNA binding domain. DPH1, a gene required for diphthamide biosynthesis, as used to control for interactions that were not specific to the PKA isoforms."}, "[2]": {"molecular_target": "B3", "text": "as §1"}, "[3]": {"molecular_target": "B1", "text": "as §1"}}, "data": [{"binder": "B1", "values": [{"measurement": "binding result", "setting": "[1]", "value": "no binding"}]}, {"binder": "B2", "values": [{"measurement": "binding result", "setting": "[2]", "value": "no binding"}, {"measurement": "binding result", "setting": "[3]", "value": "no binding"}]}, {"binder": "B3", "values": [{"measurement": "binding result", "setting": "[1]", "value": "no binding"}]}]}
